Test results reported in patent WO2019054460A1 (dated 2019).

Assays:
[1] = target: RAMP2 expressed on the cell surface of HUVEC (human umbilical vein endothelial cells) (human) (UniProt O60895); test: cell-based or functional assay
[2] = target: T1, human RAMP2 co-expressed with human CRLR on CHO-K1 cells (hCR2-CHOK1) (human, UniProt O60895 43-175; Q16602 23-461); test: cell-based or functional assay
[3] = target: T1, human RAMP2 co-expressed with human …; test: Cell ELISA on fixed hCR2-CHOK1 cells, 1/2 serial dilution from 67.5 nM, GraphPad Prism 7
[4] = target: RAMP2 expressed on the cell surface of HUVEC (human umbilical vein endothelial cells) (human, UniProt O60895 43-175); test: cell-based or functional assay
Sequence of RAMP2 expressed on the cell surface of HUVEC (human umbilical vein endothelial cells) (O60895 43-175): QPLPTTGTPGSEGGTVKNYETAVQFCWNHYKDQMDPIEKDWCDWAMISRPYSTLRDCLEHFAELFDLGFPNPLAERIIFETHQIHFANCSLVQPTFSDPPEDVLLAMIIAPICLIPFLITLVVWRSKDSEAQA

[5] = target: T1, human RAMP2 co-expressed with human …; test: Cell ELISA on fixed hCR2-CHOK1 cells, 1/10 serial dilution from 67 nM, anti-human IgG Fc-HRP, GraphPad Prism 7

T1 sequence (O60895 43-175, chain 1 of 2): as the sequence (O60895 43-175) above
T1 sequence (Q16602 23-461, chain 2 of 2): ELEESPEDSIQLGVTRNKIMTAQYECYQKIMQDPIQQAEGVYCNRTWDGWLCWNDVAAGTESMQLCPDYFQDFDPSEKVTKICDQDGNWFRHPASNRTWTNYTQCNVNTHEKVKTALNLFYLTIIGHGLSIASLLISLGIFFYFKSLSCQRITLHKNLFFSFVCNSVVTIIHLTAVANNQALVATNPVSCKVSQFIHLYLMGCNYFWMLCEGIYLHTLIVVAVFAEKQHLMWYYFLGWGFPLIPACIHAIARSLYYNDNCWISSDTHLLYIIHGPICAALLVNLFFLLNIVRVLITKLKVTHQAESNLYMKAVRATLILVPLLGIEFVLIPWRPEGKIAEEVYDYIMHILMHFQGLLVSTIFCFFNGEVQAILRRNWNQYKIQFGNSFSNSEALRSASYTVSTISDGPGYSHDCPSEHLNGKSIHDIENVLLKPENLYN
Sequence of RAMP2 expressed on the cell surface of HUVEC (human umbilical vein endothelial cells) (human) (O60895 43-175): as the sequence (O60895 43-175) above

Row | Binder | HUVEC proliferation upon AM addition, 10 nM antibody (OD450, % of no antibody) [1] [%] | IC50 values for inhibition of HUVEC proliferation [1] [nM] | IC50 values for cAMP inhibition [2] [nM] | EC50 [3] [nM] | HUVEC growth inhibition rate (IC50) [4] [nM] | EC50 [5] [nM]
1 | 25H4-4F9 antibody (antibody, V domains shown) VH: EVQLQQSGPELVKPGASVKISCKASGYSFTGYFMNWVKQSQGKSLESIGRNNPYNGDSIYNQKFKGKATLTVDKSSNTAHMELRSLTSEDSAVYYCARLMIFDAYYAMDYWGQGTSVTVSS VL: DIQMTQTTSSLSASLGDRVTISCRASQDIRNYLNWYQQKPDGTVKLLIYYTSRLHSGVPSRFSGSGSGTDYSLTISNLEQEDIATYFCQQDSKHPWTFGGGTKLEIK | 30 | 1.2 | 0.15 | 0.4 | – | –
2 | 85H7-2B11 antibody (antibody, V domains shown) VH: EVQLQQSGPELVKPGASVKMSCKASGYSFSGYFMNWVKQSHGKSLEWIGRINPYNGDTFYNQKFKGKATLTVDKSSSTTHMELRSLTSEDSALYYCARLGIYDVYHYVMENWGQGTSVTVSS VL: DIQMTQTTSSLSASLGDRVTISCRASQDIRNYLNWYQQKPDGTVKLLIYYTSRLHSGVPSRFSGSGSGTDYSLTISNLEQEDIATYFCQQDSKNPWTFGGGTKLEIK | 30 | 0.8 | 0.03 | 0.14 | – | –
3 | h25H4-4F9v1 (antibody, V domains shown) VH: EVQLVQSGPEVVKPGATVKISCKASGYSFTGYFMNWVKQAQGKSLESIGRNNPYNGDSIYNQKFKGKATLTVDKSTNTAYMELSSLRSEDTAVYYCARLMIFDAYYAMDYWGQGTTVTVSS VL: DIQMTQSTSSLSASLGDRVTITCRASQDIRNYLNWYQQKPGKTVKLLIYYTSRLHSGVPSRFSGSGSGTDYTLTISSLQQEDIATYFCQQDSKHPWTFGQGTKLEIK | – | – | 0.17 | – | 16 | 0.73
4 | h25H4-4F9v2 (antibody, V domains shown) VH: EVQLVQSGAEVKKPGATVKISCKASGYSFTGYFMNWVKQAPGKGLESIGRNNPYNGDSIYNQKFKGRATLTVDTSTDTAYMELSSLRSEDTAVYYCARLMIFDAYYAMDYWGQGTTVTVSS VL: DIQMTQSTSSLSASLGDRVTITCRASQDIRNYLNWYQQKPGKTVKLLIYYTSRLHSGVPSRFSGSGSGTDYTLTISSLQQEDIATYFCQQDSKHPWTFGQGTKLEIK | – | – | 0.14 | – | 10.9 | 1.05
5 | 33H4-1G3 antibody (antibody, V domains shown) VH: EVQLQQSGPELVKPGASVKMSCKASGYSFSGYFMNWVKQSHGKSLEWIGRINPYNGDTLYNQKFKGKATLTVDKSSNTIYMELRSLTSEDSALYYCARLGIYDVYHYVMENWGQGTSVTVSS VL: DIQMTQTTSSLSASLGDRVTISCRASQDIRNYLNWYQQKPDGTVKLLIYYTSRLHSGVPSRFSGSGSGTDYSLTISNLEQEDIATYFCQQDSKNPWTFGGGTKLEIK | 30 | 1.6 | 0.045 | 0.3 | – | –
6 | h25H4-4F9v3 (antibody, V domains shown) VH: EVQLVQSGAEVKKPGATVKISCKASGYSFTGYFMNWVKQAPGKGLESIGRNNPYNGDSIYNQKFKGRATLTVDTSTDTAYMELSSLRSEDTAVYYCARLMIFDAYYAMDYWGQGTTVTVSS VL: DIQMTQSPSSLSASVGDRVTITCRASQDIRNYLNWYQQKPGKAVKLLIYYTSRLHSGVPSRFSGSGSGTDYTLTISSLQPEDIATYFCQQDSKHPWTFGQGTKLEIK | – | – | 0.26 | – | – | 0.83
7 | h25H4-4F9v4 (antibody, V domains shown) VH: EVQLVQSGAEVKKPGATVKISCKVSGYSFTGYFMNWVQQAPGKGLESIGRNNPYNGDSIYNEKFQGRVTITADTSTDTAYMELSSLRSEDTAVYYCARLMIFDAYYAMDYWGQGTTVTVSS VL: DIQMTQSPSSLSASVGDRVTITCRASQDIRNYLNWYQQKPGKAVKLLIYYTSRLHSGVPSRFSGSGSGTDYTLTISSLQPEDIATYFCQQDSKHPWTFGQGTKLEIK | – | – | 0.17 | – | – | 1.83
8 | h25H4-4F9v5 (antibody, V domains shown) VH: EVQLVQSGAEVKKPGATVKISCKVSGYSFTGYFMNWVQQAPGKGLESIGRNNPYNGDSIYNEKFQGRVTITADTSTDTAYMELSSLRSEDTAVYYCARLMIFDAYYAMDYWGQGTTVTVSS VL: DIQMTQSPSSLSASVGDRVTITCQASQDIRNYLNWYQQKPGKAVKLLIYYTSRLHSGVPSRFSGSGSGTDFTFTISSLQPEDIATYYCQQDSKHPWTFGQGTKLEIK | – | – | 0.5 | – | – | 2.32

The next lines start with the values.

Row | HUVEC proliferation upon AM addition, 10 nM antibody (OD450, % of no antibody) [1] [%] | IC50 values for inhibition of HUVEC proliferation [1] [nM] | IC50 values for cAMP inhibition [2] [nM] | EC50 [3] [nM] | HUVEC growth inhibition rate (IC50) [4] [nM] | EC50 [5] [nM] | Binder
9 | – | – | 0.11 | – | 9.5 | 0.24 | h85H7-2B11v2 (antibody, V domains shown) VH: QVQLVQSGAEVKKPGASVKMSCKASGYSFSGYFMNWVKQAPGQGLEWIGRINPYNGDTFYNQKFKGRATLTVDTSTSTTYMELSSLRSEDTALYYCARLGIYDVYHYVMENWGQGTTVTVSS VL: DIQMTQSTSSLSASLGDRVTITCRASQDIRNYLNWYQQKPGKTVKLLIYYTSRLHSGVPSRFSGSGSGTDYTLTISSLQQEDIATYFCQQDSKNPWTFGQGTKLEIK
10 | – | – | 0.07 | – | 5.1 | 0.18 | h85H7-2B11v1 (antibody, V domains shown) VH: EVQLVQSGPEVVKPGASVKMSCKASGYSFSGYFMNWVKQAHGQSLEWIGRINPYNGDTFYNQKFKGKATLTVDKSTSTTYMELSSLRSEDTALYYCARLGIYDVYHYVMENWGQGTTVTVSS VL: DIQMTQSTSSLSASLGDRVTITCRASQDIRNYLNWYQQKPGKTVKLLIYYTSRLHSGVPSRFSGSGSGTDYTLTISSLQQEDIATYFCQQDSKNPWTFGQGTKLEIK
11 | – | – | 1.35 | – | – | 3.19 | h25H4-4F9v6 (antibody, V domains shown) VH: EVQLVQSGAEVKKPGATVKISCKVSGYTFTGYFMNWVQQAPGKGLESMGRNNPYNGDSIYAEKFQGRVTITADTSTDTAYMELSSLRSEDTAVYYCARLMIFDAYYAMDYWGQGTTVTVSS VL: DIQMTQSPSSLSASVGDRVTITCQASQDIRNYLNWYQQKPGKAVKLLIYYTSRLHSGVPSRFSGSGSGTDFTFTISSLQPEDIATYYCQQDSKHPWTFGQGTKLEIK
12 | – | – | 1.07 | – | – | 3.03 | h25H4-4F9v8 (antibody, V domains shown) VH: EVQLVQSGAEVKKPGATVKISCKVSGYTFTGYFMNWVQQAPGKGLEWMGRNNPYNGDSIYAEKFQGRVTITADTSTDTAYMELSSLRSEDTAVYYCARLMIFDAYYAMDYWGQGTTVTVSS VL: DIQMTQSPSSLSASVGDRVTITCQASQDIRNYLNWYQQKPGKAPKLLIYYTSRLETGVPSRFSGSGSGTDFTFTISSLQPEDIATYYCQQDSKHPWTFGQGTKLEIK
13 | – | – | 0.08 | – | 1.5 | 0.23 | h85H7-2B11v3 (antibody, V domains shown) VH: QVQLVQSGAEVKKPGASVKMSCKASGYSFSGYFMNWVKQAPGQGLEWIGRINPYNGDTFYNQKFKGRATLTVDTSTSTTYMELSSLRSEDTALYYCARLGIYDVYHYVMENWGQGTTVTVSS VL: DIQMTQSPSSLSASVGDRVTITCRASQDIRNYLNWYQQKPGKAVKLLIYYTSRLHSGVPSRFSGSGSGTDYTLTISSLQPEDIATYFCQQDSKNPWTFGQGTKLEIK
